Tests used:
[1] = target: T1, hen egg lysozyme (Gallus gallus (hen egg white), UniProt P00698); test: SPR; Biacore T200; lysozyme immobilised on Sensor Chip CM5 by amine coupling to 200 RU; VHH injected 300 s, dissociation 600 s; running buffer PBST (PBS, 0.005% Tween 20); duplicate; 1:1 binding model; conditions: both partners purified
T1 construct: hen egg lysozyme (HEL), antigen of VHH D3-L11; also in the complex structure PDB 6JB8; also called HEL; antigen lysozyme; source: bought: Sigma-Aldrich, Cat No. L6876 (named for the ELISA)

[2] = target: T1, hen egg lysozyme; test: ELISA; lysozyme (1 ug/mL) coated on 384-well MaxiSorp plate overnight at 4 °C; serial concentrations of VHH in 5% BlockingOne in TBST, 1 h at room temperature; detected with Penta-His HRP conjugate; conditions: both partners purified

T1 sequence (P00698 19-147): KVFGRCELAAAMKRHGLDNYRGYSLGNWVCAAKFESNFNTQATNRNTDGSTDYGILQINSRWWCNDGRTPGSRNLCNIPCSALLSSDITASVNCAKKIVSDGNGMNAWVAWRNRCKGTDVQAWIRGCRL

Binder | fold decrease in affinity (KD) against wild type [1] [fold] | fold decrease in affinity (EC50) against wild type [2] [fold]
D3-L11 A79L (VHH, as the VHH chain of m2 (D3-L11, PDB 6JB8) with the stated substitution; Second-round mutant; same construct as m2; also called L mutant; source: ExpiCHO, transient transfection, purified from supernatant (His Mag Sepharose excel); not shown: His6 (after a SAG tripeptide linker), C-terminal, kept) VHH: DVQLVESGGGSVQAGGSLRLSCAASGSTDSIEYMTWFRQAPGKAREGVAALYTHTGNTYYTDSVKGRFTISQDKAKNMLYLRMDSVKSEDTAIYTCGATRKYVPVRFALDQSSYDYWGQGTQVTVSS | < 10 | < 10
D3-L11 A79M (VHH, as the VHH chain of m2 (D3-L11, PDB 6JB8) with the stated substitution; Second-round mutant; same construct as m2; also called M mutant; source: ExpiCHO, transient transfection, purified from supernatant (His Mag Sepharose excel); not shown: His6 (after a SAG tripeptide linker), C-terminal, kept) VHH: DVQLVESGGGSVQAGGSLRLSCAASGSTDSIEYMTWFRQAPGKAREGVAALYTHTGNTYYTDSVKGRFTISQDKAKNMMYLRMDSVKSEDTAIYTCGATRKYVPVRFALDQSSYDYWGQGTQVTVSS | < 10 | < 10
D3-L11 A79N (VHH, as the VHH chain of m2 (D3-L11, PDB 6JB8) with the stated substitution; Second-round mutant; same construct as m2; also called N mutant; source: ExpiCHO, transient transfection, purified from supernatant (His Mag Sepharose excel); not shown: His6 (after a SAG tripeptide linker), C-terminal, kept) VHH: DVQLVESGGGSVQAGGSLRLSCAASGSTDSIEYMTWFRQAPGKAREGVAALYTHTGNTYYTDSVKGRFTISQDKAKNMNYLRMDSVKSEDTAIYTCGATRKYVPVRFALDQSSYDYWGQGTQVTVSS | < 10 | < 10

The next lines start with the values.

fold decrease in affinity (KD) against wild type [1] [fold] | fold decrease in affinity (EC50) against wild type [2] [fold] | Binder
< 2 | < 10 | D3-L11 A79V (VHH, as the VHH chain of m2 (D3-L11, PDB 6JB8) with the stated substitution; Second-round mutant; same construct as m2; also called V mutant; source: ExpiCHO, transient transfection, purified from supernatant (His Mag Sepharose excel); not shown: His6 (after a SAG tripeptide linker), C-terminal, kept) VHH: DVQLVESGGGSVQAGGSLRLSCAASGSTDSIEYMTWFRQAPGKAREGVAALYTHTGNTYYTDSVKGRFTISQDKAKNMVYLRMDSVKSEDTAIYTCGATRKYVPVRFALDQSSYDYWGQGTQVTVSS
< 10 | < 10 | D3-L11 A79S (VHH, as the VHH chain of m2 (D3-L11, PDB 6JB8) with the stated substitution; Second-round mutant; same construct as m2; also called S mutant; source: ExpiCHO, transient transfection, purified from supernatant (His Mag Sepharose excel); not shown: His6 (after a SAG tripeptide linker), C-terminal, kept) VHH: DVQLVESGGGSVQAGGSLRLSCAASGSTDSIEYMTWFRQAPGKAREGVAALYTHTGNTYYTDSVKGRFTISQDKAKNMSYLRMDSVKSEDTAIYTCGATRKYVPVRFALDQSSYDYWGQGTQVTVSS

— PMC10039853, “Increasing the melting temperature of VHH with the in silico free energy score” (Scientific Reports, 2023)
